Experimental data: the supplement of paper PMC9112550, “Optimization of the antimicrobial peptide Bac7 by deep mutational scanning” (BMC Biology, 2022)

System: Escherichia coli TOP10
Experiment: shrunken log2 fold change of peptide-encoding DNA abundance (4.5 h post-induction vs induction); higher = less antimicrobial activity (less host growth inhibition)
Conditions: time post-induction: 4.5 h; library: site-saturation at positions 5, 18, 19, 20
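Note: peptides expressed intracellularly from a pBAD plasmid library in pooled LB shake-flask culture, induced with 0.3% L-arabinose, DNA abundance read by NGS, three biological replicates, DESeq2 with apeglm shrinkage.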

Sequence | shrunken log2 fold change
RRIRERPPRLPRPRPRPYMMPRP | -0.259
RRIRYRPPRLPRPRPRPLWCPRP | -0.125
RRIRYRPPRLPRPRPRPQTFPRP | -0.459
RRIRNRPPRLPRPRPRPGVTPRP | 0.0223
RRIRKRPPRLPRPRPRPMQVPRP | 0.175
RRIRIRPPRLPRPRPRPADDPRP | -0.062
RRIRQRPPRLPRPRPRPYAMPRP | -0.341
RRIRRRPPRLPRPRPRPWMAPRP | 0.0421
RRIRDRPPRLPRPRPRPGAEPRP | 1.08
RRIRCRPPRLPRPRPRPLSFPRP | -0.398
RRIRYRPPRLPRPRPRPTEKPRP | -0.0336
RRIRWRPPRLPRPRPRPTIAPRP | 0.367
RRIRHRPPRLPRPRPRPKDRPRP | 0.00902
RRIRWRPPRLPRPRPRPFQWPRP | 0.236
RRIRERPPRLPRPRPRPNSWPRP | -0.0404
RRIRERPPRLPRPRPRPDIMPRP | -0.196
RRIRARPPRLPRPRPRPKQQPRP | 0.569
RRIRKRPPRLPRPRPRPEGGPRP | 0.543
RRIRVRPPRLPRPRPRPGDEPRP | 0.122
RRIRLRPPRLPRPRPRPPGRPRP | 0.66
RRIRPRPPRLPRPRPRPSPGPRP | 0.0372
RRIRNRPPRLPRPRPRPVYRPRP | -0.815
RRIRHRPPRLPRPRPRPGDSPRP | -0.53
RRIRMRPPRLPRPRPRPMRRPRP | 0.487
RRIRQRPPRLPRPRPRPNVCPRP | -0.575

Sequence | shrunken log2 fold change
RRIRNRPPRLPRPRPRPPWWPRP | 0.788
RRIRWRPPRLPRPRPRPCPFPRP | -0.646
RRIRYRPPRLPRPRPRPHDLPRP | -0.00151
RRIRHRPPRLPRPRPRPTMLPRP | -0.468
RRIRLRPPRLPRPRPRPWQVPRP | 0.0253
RRIRWRPPRLPRPRPRPSVLPRP | -0.225
RRIRYRPPRLPRPRPRPFEWPRP | 0.0273
RRIRCRPPRLPRPRPRPYNNPRP | -1.23
RRIRVRPPRLPRPRPRPGDIPRP | -0.264
RRIRGRPPRLPRPRPRPRDTPRP | 0.649
RRIRIRPPRLPRPRPRPLWLPRP | -0.208
RRIRERPPRLPRPRPRPNQEPRP | 0.0174
RRIRWRPPRLPRPRPRPWMQPRP | -0.147
RRIRHRPPRLPRPRPRPPWHPRP | -0.0707
RRIRRRPPRLPRPRPRPPKCPRP | 0.423
RRIRCRPPRLPRPRPRPPIPPRP | 0.31
RRIRRRPPRLPRPRPRPNKAPRP | 0.158
RRIRFRPPRLPRPRPRPMRGPRP | 0.664
RRIRLRPPRLPRPRPRPLGIPRP | -0.199
RRIRRRPPRLPRPRPRPSRSPRP | 0.139
RRIRDRPPRLPRPRPRPIEDPRP | -0.0411
RRIRGRPPRLPRPRPRPAPKPRP | 1.18
RRIRWRPPRLPRPRPRPFWAPRP | 0.274
RRIRPRPPRLPRPRPRPCHGPRP | -0.0271
RRIRARPPRLPRPRPRPLYCPRP | 0.765

Sequence | shrunken log2 fold change
RRIRNRPPRLPRPRPRPVIRPRP | -0.164
RRIRIRPPRLPRPRPRPCYLPRP | -0.0394
RRIRPRPPRLPRPRPRPHMFPRP | 0.00976
RRIRYRPPRLPRPRPRPYQMPRP | -0.344
RRIRIRPPRLPRPRPRPQHEPRP | -0.262
RRIRFRPPRLPRPRPRPSRFPRP | -0.0395
RRIRMRPPRLPRPRPRPNALPRP | 0.313
RRIRTRPPRLPRPRPRPFPIPRP | -1.16
RRIRQRPPRLPRPRPRPYTIPRP | -0.0485
RRIRPRPPRLPRPRPRPKADPRP | 0.0968
RRIRPRPPRLPRPRPRPHQEPRP | 4.12
RRIRCRPPRLPRPRPRPDLVPRP | -0.0994
RRIRKRPPRLPRPRPRPSKKPRP | 0.0529
RRIRTRPPRLPRPRPRPNKGPRP | -0.28
RRIRERPPRLPRPRPRPVDHPRP | -0.195
RRIRFRPPRLPRPRPRPGCNPRP | -0.292
RRIRRRPPRLPRPRPRPINTPRP | -0.364
RRIRIRPPRLPRPRPRPIYCPRP | -0.0326
RRIRPRPPRLPRPRPRPTCMPRP | 0.219
RRIRSRPPRLPRPRPRPNNAPRP | -0.38
RRIRYRPPRLPRPRPRPWGVPRP | -0.242
RRIRQRPPRLPRPRPRPHRAPRP | -0.137
RRIRGRPPRLPRPRPRPPELPRP | 1.18
RRIRTRPPRLPRPRPRPVMFPRP | 0.32
RRIRYRPPRLPRPRPRPADPPRP | 0.035

Sequence | shrunken log2 fold change
RRIRGRPPRLPRPRPRPFVCPRP | 0.327
RRIRDRPPRLPRPRPRPNSYPRP | 0.179
RRIRNRPPRLPRPRPRPCVTPRP | -0.0849
RRIRHRPPRLPRPRPRPCPAPRP | -0.231
RRIRARPPRLPRPRPRPHYRPRP | 0.0684
RRIRRRPPRLPRPRPRPEVLPRP | 0.211
RRIRWRPPRLPRPRPRPFSYPRP | -0.203
RRIRGRPPRLPRPRPRPTWKPRP | 0.847
RRIRIRPPRLPRPRPRPELEPRP | 0.0281
RRIRIRPPRLPRPRPRPLCPPRP | -0.502
RRIRSRPPRLPRPRPRPYLMPRP | -0.566
RRIRCRPPRLPRPRPRPKGPPRP | 0.348
RRIRKRPPRLPRPRPRPVNFPRP | -0.0174
RRIRCRPPRLPRPRPRPTEQPRP | -0.304
RRIRLRPPRLPRPRPRPMCVPRP | -0.231
RRIRLRPPRLPRPRPRPFHFPRP | -0.58
RRIRFRPPRLPRPRPRPRFEPRP | 0.162
RRIRGRPPRLPRPRPRPSEQPRP | 0.301
RRIRWRPPRLPRPRPRPWWQPRP | 0.16
RRIRARPPRLPRPRPRPRPIPRP | 0.719
RRIRNRPPRLPRPRPRPDSAPRP | -0.126
RRIRTRPPRLPRPRPRPVSVPRP | -0.0287
RRIRPRPPRLPRPRPRPYEKPRP | -0.0835
RRIRSRPPRLPRPRPRPLMTPRP | 0.653
RRIRWRPPRLPRPRPRPDCGPRP | 0.885

Sequence | shrunken log2 fold change
RRIRIRPPRLPRPRPRPRSRPRP | 0.0781
RRIRFRPPRLPRPRPRPNILPRP | -0.178
RRIRGRPPRLPRPRPRPYGHPRP | 0.323
RRIRTRPPRLPRPRPRPSWMPRP | -0.466
RRIRLRPPRLPRPRPRPCTDPRP | -0.199
RRIRYRPPRLPRPRPRPLLAPRP | -0.197
RRIRVRPPRLPRPRPRPQWQPRP | 0.0741
RRIRKRPPRLPRPRPRPDKGPRP | -0.022
RRIRTRPPRLPRPRPRPCLRPRP | 0.0877
RRIRLRPPRLPRPRPRPNRSPRP | -0.0205
RRIRMRPPRLPRPRPRPWPAPRP | 0.807
RRIRWRPPRLPRPRPRPKKAPRP | 0.149
RRIRMRPPRLPRPRPRPPKEPRP | -0.0231
RRIRVRPPRLPRPRPRPFWLPRP | 0.234
RRIRSRPPRLPRPRPRPFDGPRP | 0.0042
RRIRQRPPRLPRPRPRPGTFPRP | -0.499
RRIRNRPPRLPRPRPRPEWFPRP | -0.00884
RRIRARPPRLPRPRPRPYAFPRP | -0.125
RRIRERPPRLPRPRPRPQPSPRP | 0.0462
RRIRVRPPRLPRPRPRPCKRPRP | -0.196
RRIRNRPPRLPRPRPRPNHNPRP | -0.858
RRIRHRPPRLPRPRPRPHLEPRP | -0.0228
RRIRARPPRLPRPRPRPEKLPRP | 0.758
RRIRPRPPRLPRPRPRPQELPRP | 0.126
RRIRARPPRLPRPRPRPDRIPRP | -0.00136

Sequence | shrunken log2 fold change
RRIRPRPPRLPRPRPRPAAGPRP | 0.287
RRIRCRPPRLPRPRPRPVNAPRP | -0.0831
RRIRQRPPRLPRPRPRPALEPRP | 0.275
RRIRIRPPRLPRPRPRPVEVPRP | 0.0961
RRIRHRPPRLPRPRPRPMLVPRP | -0.155
RRIRHRPPRLPRPRPRPVTTPRP | 0.0639
RRIRCRPPRLPRPRPRPMCIPRP | -0.146
RRIRYRPPRLPRPRPRPIPFPRP | -1.53
RRIRSRPPRLPRPRPRPEINPRP | 0.0112
RRIRSRPPRLPRPRPRPFCHPRP | -0.162
RRIRHRPPRLPRPRPRPRPMPRP | -0.00237
RRIRERPPRLPRPRPRPSDEPRP | -0.228
RRIRDRPPRLPRPRPRPCSYPRP | -0.138
RRIRVRPPRLPRPRPRPLWGPRP | 0.0188
RRIRARPPRLPRPRPRPWRGPRP | 0.39
RRIRERPPRLPRPRPRPLIWPRP | -0.364
RRIRWRPPRLPRPRPRPICVPRP | -0.12
RRIRNRPPRLPRPRPRPQNWPRP | -0.146
RRIRFRPPRLPRPRPRPESMPRP | -0.188
RRIRMRPPRLPRPRPRPLFNPRP | -0.439
RRIRGRPPRLPRPRPRPPYFPRP | 0.0555
RRIRWRPPRLPRPRPRPPSAPRP | 0.744
RRIRRRPPRLPRPRPRPSRMPRP | 0.0176
RRIRDRPPRLPRPRPRPHGVPRP | -0.00965
RRIRQRPPRLPRPRPRPVQMPRP | -0.163
